{"source": "patent US20230242902A1", "about": "“A HIGHLY ERROR-PRONE […] R[…] FOR TARGETED CONTINUOUS EVOLUTION IN VIVO” (The Regents of the University of California, priority 2017, published 2023)", "molecules": {"B1": {"name": "T303M: TP-DNAP1 variant (protein)", "chain": "MDYKDKALNDLRNVYADFDSLPLDFRQILIKDRATLLQKEDVEKKILERQEDAKKYAEYLKQSEIPERISLPNIKRHKGVSISFEETSEDMVLEPRPFIFDGLNIRCFRRETIFSLKNKILNMVKESSSFKNVSRQSVSFMYFKIFNKGKVIASTKSVNIYEDKIDERLEDLCNNFDDVLKKIIDVTYGYESLFVSETYSYVIFYAKSIYFPQPRCVNNWGNNIPNILTFDSFKLFTANKNNVSCIKQCSRFLWQKDFNTLEEMIEYKNGNICIVTPQLHINDVRDIKSFNDIRLYSESPIKMFSVIDNTITYLFYFKEHLGVIFNITKSRHDRRVTKFSPLSKFSDVKNITVCFDIESYFDPEKESNQVNIPFICCASIIYNKVIGNIVDFEGRDCVAQMIEYVVDICGELNISSVELIAHNGGGYDFHYILSSMYNPAAIKNILIRNNSFISFNFAHDGVKFSVKDSYSFLLCSLANASKAFLNEETFKKTDFPHHDLKTADDLYKVYKEWSSVNTEINHVVEKEKLLITSEHIVNFTKNDKSKTLIEWSKDYCRNDVLVLSKVWLEFKNAVEDIFNCELVDQTMTLAGLSYKLFQANMPFDVELRHPNKEDYFNMREALIGGRCISVNGIYKDVLCLDVKSLYPASMAFYDQPYGSFKRVSSRPKDELGIYYVRVTPNRNNKSNFFPIRSHNKITYNNFEESTYIAWYTNVDIDIGLSEGHNIEYIPFDSYGNIGYSWSKKGKIFEKYIKDVLYKLKIKYEKQNNKVKRNVIKIIMNSLWGKFAQKWVNFEYFIKSEDDIDFESEEAYKIWDTDFMLIKKIKESTYSSKPIQNGVFTLSWARYHMKSIWDAGAKEGAECIYSDTDSIFVHKEHFKKNAKFMLNGLKVPIIGSEVGQLELECEFDKLLCAGKKQYMGFYTYFQDGKPCIKEKKRFKGIPSNYIIPELYAHLLSGADKEAKIQFLKFRREWGSVKGYIENKTVKAT"}, "B2": {"name": "T310F: TP-DNAP1 variant (protein)", "chain": "B1 chain with M303T, T310F"}, "B3": {"name": "D308Q: TP-DNAP1 variant (protein)", "chain": "B1 chain with M303T, D308Q"}, "B4": {"name": "T303W: TP-DNAP1 variant (protein)", "chain": "B1 chain with M303W"}, "B5": {"name": "I311M: TP-DNAP1 variant (protein)", "chain": "B1 chain with M303T, I311M"}, "B6": {"name": "S330R: TP-DNAP1 variant (protein)", "chain": "B1 chain with M303T, S330R"}, "B7": {"name": "F304A: TP-DNAP1 variant (protein)", "chain": "B1 chain with M303T, F304A"}, "B8": {"name": "T312Q: TP-DNAP1 variant (protein)", "chain": "B1 chain with M303T, T312Q"}, "B9": {"name": "I311A: TP-DNAP1 variant (protein)", "chain": "B1 chain with M303T, I311A"}, "B10": {"name": "F304R: TP-DNAP1 variant (protein)", "chain": "B1 chain with M303T, F304R"}, "B11": {"name": "D333M: TP-DNAP1 variant (protein)", "chain": "B1 chain with M303T, D333M"}, "B12": {"name": "Y313V: TP-DNAP1 variant (protein)", "chain": "B1 chain with M303T, Y313V"}, "B13": {"name": "T310D: TP-DNAP1 variant (protein)", "chain": "B1 chain with M303T, T310D"}, "B14": {"name": "Y313F: TP-DNAP1 variant (protein)", "chain": "B1 chain with M303T, Y313F"}, "B15": {"name": "Y313W: TP-DNAP1 variant (protein)", "chain": "B1 chain with M303T, Y313W"}, "B16": {"name": "Y313M: TP-DNAP1 variant (protein)", "chain": "B1 chain with M303T, Y313M"}, "B17": {"name": "T310N: TP-DNAP1 variant (protein)", "chain": "B1 chain with M303T, T310N"}, "B18": {"name": "Y313H: TP-DNAP1 variant (protein)", "chain": "B1 chain with M303T, Y313H"}, "B19": {"name": "N309K, I311G: TP-DNAP1 variant (protein)", "chain": "B1 chain with M303T, N309K, I311G"}, "B20": {"name": "I311D: TP-DNAP1 variant (protein)", "chain": "B1 chain with M303T, I311D"}, "B21": {"name": "I311G: TP-DNAP1 variant (protein)", "chain": "B1 chain with M303T, I311G"}, "B22": {"name": "Y316R: TP-DNAP1 variant (protein)", "chain": "B1 chain with M303T, Y316R"}, "B23": {"name": "D333A: TP-DNAP1 variant (protein)", "chain": "B1 chain with M303T, D333A"}, "B24": {"name": "I307L: TP-DNAP1 variant (protein)", "chain": "B1 chain with M303T, I307L"}, "B25": {"name": "I327Q: TP-DNAP1 variant (protein)", "chain": "B1 chain with M303T, I327Q"}, "B26": {"name": "F304Y: TP-DNAP1 variant (protein)", "chain": "B1 chain with M303T, F304Y"}, "B27": {"name": "I311N: TP-DNAP1 variant (protein)", "chain": "B1 chain with M303T, I311N"}, "B28": {"name": "T312E: TP-DNAP1 variant (protein)", "chain": "B1 chain with M303T, T312E"}, "B29": {"name": "T310H: TP-DNAP1 variant (protein)", "chain": "B1 chain with M303T, T310H"}, "B30": {"name": "D333N: TP-DNAP1 variant (protein)", "chain": "B1 chain with M303T, D333N"}, "B31": {"name": "S305G: TP-DNAP1 variant (protein)", "chain": "B1 chain with M303T, S305G"}, "B32": {"name": "S305N: TP-DNAP1 variant (protein)", "chain": "B1 chain with M303T, S305N"}, "B33": {"name": "D333N, K344R: TP-DNAP1 variant (protein)", "chain": "B1 chain with M303T, D333N, K344R"}, "B34": {"name": "N309C: TP-DNAP1 variant (protein)", "chain": "B1 chain with M303T, N309C"}, "B35": {"name": "T310W: TP-DNAP1 variant (protein)", "chain": "B1 chain with M303T, T310W"}, "B36": {"name": "T310E: TP-DNAP1 variant (protein)", "chain": "B1 chain with M303T, T310E"}}, "note": "Where a chain is given by its changes, count along the chain named. Names and notes keep the numbering of the source.", "data": [{"test_system": "p1", "assay": "p1 copy number by p1-encoded mKate2 fluorescence", "type": "cell-based, S. cerevisiae", "details": "OR-Y24, measured in triplicate", "outline": "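Steps: transform TP-DNAP1 variant into OR-Y24; passage until w.t. p1 displaced; dilute 1:10,000 and grow to saturation in triplicate; measure p1-encoded mKate2 fluorescence; convert to copy number via linear qPCR-based calibration. Four high-copy variants were checked directly by qPCR.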", "units": {"Mean fold-increase over w.t. (p1 copy number)": "fold"}, "values": [{"molecule": "B1", "Mean fold-increase over w.t. (p1 copy number)": 2.5}, {"molecule": "B2", "Mean fold-increase over w.t. (p1 copy number)": 2.66}, {"molecule": "B3", "Mean fold-increase over w.t. (p1 copy number)": 2.15}, {"molecule": "B4", "Mean fold-increase over w.t. (p1 copy number)": 2.96}, {"molecule": "B5", "Mean fold-increase over w.t. (p1 copy number)": 2.26}, {"molecule": "B6", "Mean fold-increase over w.t. (p1 copy number)": 2.21}, {"molecule": "B7", "Mean fold-increase over w.t. (p1 copy number)": 2.14}, {"molecule": "B8", "Mean fold-increase over w.t. (p1 copy number)": 2.85}, {"molecule": "B9", "Mean fold-increase over w.t. (p1 copy number)": 2.19}, {"molecule": "B10", "Mean fold-increase over w.t. (p1 copy number)": 3.49}, {"molecule": "B11", "Mean fold-increase over w.t. (p1 copy number)": 2.6}, {"molecule": "B12", "Mean fold-increase over w.t. (p1 copy number)": 2.48}, {"molecule": "B13", "Mean fold-increase over w.t. (p1 copy number)": 2.64}, {"molecule": "B14", "Mean fold-increase over w.t. (p1 copy number)": 2.11}, {"molecule": "B15", "Mean fold-increase over w.t. (p1 copy number)": 2.15}, {"molecule": "B16", "Mean fold-increase over w.t. (p1 copy number)": 1.94}, {"molecule": "B17", "Mean fold-increase over w.t. (p1 copy number)": 2.83}, {"molecule": "B18", "Mean fold-increase over w.t. (p1 copy number)": 3.08}, {"molecule": "B19", "Mean fold-increase over w.t. (p1 copy number)": 2.2}, {"molecule": "B20", "Mean fold-increase over w.t. (p1 copy number)": 1.86}, {"molecule": "B21", "Mean fold-increase over w.t. (p1 copy number)": 2.05}, {"molecule": "B22", "Mean fold-increase over w.t. (p1 copy number)": 2.46}, {"molecule": "B23", "Mean fold-increase over w.t. (p1 copy number)": 1.57}, {"molecule": "B24", "Mean fold-increase over w.t. (p1 copy number)": 2.76}, {"molecule": "B25", "Mean fold-increase over w.t. (p1 copy number)": 2.15}, {"molecule": "B26", "Mean fold-increase over w.t. (p1 copy number)": 2.41}, {"molecule": "B27", "Mean fold-increase over w.t. (p1 copy number)": 2.55}, {"molecule": "B28", "Mean fold-increase over w.t. (p1 copy number)": 2.29}, {"molecule": "B29", "Mean fold-increase over w.t. (p1 copy number)": 2.57}, {"molecule": "B30", "Mean fold-increase over w.t. (p1 copy number)": 2.07}, {"molecule": "B31", "Mean fold-increase over w.t. (p1 copy number)": 2.53}, {"molecule": "B32", "Mean fold-increase over w.t. (p1 copy number)": 2.3}, {"molecule": "B33", "Mean fold-increase over w.t. (p1 copy number)": 2.07}, {"molecule": "B34", "Mean fold-increase over w.t. (p1 copy number)": 2.25}, {"molecule": "B35", "Mean fold-increase over w.t. (p1 copy number)": 2.48}, {"molecule": "B36", "Mean fold-increase over w.t. (p1 copy number)": 2.37}]}]}
